Test results from publication PMC10087246.

Biological target: SCO3201 (amino acids 21–216), TetR/AcrR-like regulator from Streptomyces coelicolor (Streptomyces coelicolor) (UniProt Q9KYU4)
Test: SAXS

## SCO3201 (amino acids 21–216), TetR/AcrR-like regulator from Streptomyces coelicolor (from UniProt Q9KYU4 21-216) (domain or fragment)
  stoichiometry N: 2
